Experimental data taken from US20100081624A1, “SELECTIVE PEPTIDES THAT INHIBIT THE BIOLOGICAL ACTIVITY OF CALCINEURIN” (Consejo Superior de Investigaciones Cientficas, priority 2005, published 2010).
No end group written: not given here.

How the values were obtained:
human CN = target: T1, human CN (Homo sapiens, UniProt P63098+Q08209); assay: Phosphatase activity assay of CN on pNPP; assay type: biochemical; conditions: pNPP substrate; 0.01 mM
T1 construct: made in house; host or cells: bacteria
T1 sequence (P63098 whole entry, other chains not shown): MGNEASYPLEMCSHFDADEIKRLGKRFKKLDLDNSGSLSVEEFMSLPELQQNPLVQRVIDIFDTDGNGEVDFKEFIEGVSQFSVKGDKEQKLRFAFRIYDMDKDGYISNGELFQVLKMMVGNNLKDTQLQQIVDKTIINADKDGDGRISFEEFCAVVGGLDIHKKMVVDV
Procedure: Phosphatase Activity Assay of CN on pNPP (Paranitrophenylphosphate).
The quantity of the product of the enzymatic reaction at basic pH (paranitrophenolate=PNP) was measured by absorbance at 405 nm, converting this numerical value to a concentration by means of interpolation from a straight-line PNP pattern.

[1] = tested on: NFATc2 dephosphorylation in HeLa cells; assay: NFATc2 dephosphorylation in transfected HeLa cells (Western blot); assay type: cell-based; conditions: HeLa co-transfected with HA-NFATc2; PMA + calcium ionophore 1 hour, FIG. 8A
Procedure: The HeLa cells were cultivated in Dulbecco medium modified by Eagle (DMEM) (Gibco) completed with 10% bovine foetal serum (FBS) (Sigma). The day prior to transfection, the cells were seeded in 6-well plates in order to reach an 80% confluence at the moment of transfection. The cells were transfected with 18 ng of pEF-BOS HA-NFATc2 plus 1.1 μg of the GFP-peptide plasmids with 4 μl of Plus reagent plus 6 μl of Lipofectamine reagent (Invitrogen) for 3 hours in 1 ml of OPTIMEM medium (Gibco). By means of flow cytometry, the transfection efficiency and the percentage of cells which expressed GFP were quantified. Similar transfection efficiencies were obtained for the different constructs and in independent experiments.
Twenty-four hours after the transfection, the HeLa culture medium was replaced by DMEM+1% FBS. After a further two hours, the cells were stimulated during 1 hour using 20 ng/ml of PMA (phorbol 12 myristrate 13 acetate) (Sigma) plus 1 μM of calcium ionophore A23187 (Sigma) and 3 mM of CaCl2. […] After three washes with PBS-T and one additional wash with H2O, the antibody bound to the membranes was detected by means of the ECL system (Amersham Biosciences).

[2] = tested on: nuclear translocation of NFATc2 in HeLa cells; assay: Subcellular localisation of NFATc2 in transfected HeLa cells (immunofluorescence); assay type: cell-based; conditions: HeLa co-transfected with HA-NFATc2; calcium ionophore 30 min, FIG. 8B
Procedure: The HeLa cells were transfected as described in the previous section using 1.2 μg of the GFP-peptide expression plasmids with 40 ng of pEF-BOS HA-NFATc2. Two hours before the stimulation, the culture medium was replaced with DMEM+1% FBS. After stimulating during 30 min. with calcium ionophore A23187 (1 μm) and CaCl2 (3 mM), the cells were fixed at ambient temperature during 10 min. with a 10% solution of formaldehyde in PBS containing 4% saccharose. Subsequently, they were washed three times with PBS and were permeabilised at ambient temperature during 10 min. with a solution of PBS with 0.25% of Triton X-100. The cells were subsequently incubated during 20 min. with a blocking buffer (10% BSA in PBS) and subsequently with a 1:500 solution of the 12CA5 antibody (anti-HA) during one hour. The subcellular localisation of the NFATS was detected using a fluorescence microscope (Axiovert-200, Zeiss) using a mouse anti-IgG conjugated with the Alexa 594 fluorochrome (Molecular Probes) as a secondary antibody. The percentage of cells with nuclear or cytosolic distribution of NFAT was calculated using not less than 130 positive cells per transfection.

CN (Calcineurin) = target: T2, CN (Calcineurin) (UniProt P48452+P63098); assay: Pull-down of CN by GST-peptide fusion proteins (FIG. 3); assay type: binding; conditions: Western blot
T2 construct: purchased Sigma
Procedure: (§1) The GST fusion proteins were expressed in the protease-deficient strain of E. coli BL2(DE3). They were purified using the glutathione (GSH)-Sepharose B beads reagent (Amersham Biosciences). The binding of CN to these GST fusion proteins was used to carry out pull-down tests, which were performed as explained below. A variable amount of the beads which contained the GST fusion proteins fused to the regulatory NFAT domains (1-2 μg) or to the peptides (10-30 μg). These were washed twice with the binding buffer (20 mM Tris pH 8, 100 mM NaCl, 1.5 mM CaCl2, 6 mM MgCl2, 1 mM PMSF, 1 μm DTT, 1 μg/ml of aprotinine, 1 μg/ml of pepstatin, 100 μM of benzamidine and 0.2% of Triton X-100) and were subsequently incubated during 30 min. in a rotary shaker at 4° C. with a solution of 20 nM of Calcineurin (Sigma) plus 600 nM of Calmodulin (Sigma) in a binding buffer with or without the corresponding peptide. Subsequently, the samples were centrifuged briefly at 4° C. Laemmli buffer was added to the supernatants (unbound fraction), which were set aside for later analysis. […] The Calcineurin was detected by Western blot using an anti-CnA monoclonal mouse antibody (clone G182-1847, PharMingen). Where indicated, the amount of CN bound to the GST fusion proteins was quantified by densitometry using the Quantity One program (BIO-RAD).

[3] = target: T3, CN-NFATc1 interaction (GST-NFATc1) (Homo sapiens, UniProt P63098+Q08209); assay: In vitro competition of CN binding to GST-NFATc1 by synthetic peptides
T3 construct: purchased Sigma
Procedure: as §1

[4] = target: T4, CN-NFATc2 interaction (GST-NFATc2) (Homo sapiens, UniProt P63098+Q08209); assay: In vitro competition of CN binding to GST-NFATc2 by synthetic peptides
T4 construct: purchased Sigma
Procedure: The GST fusion proteins were expressed in the protease-deficient strain of E. coli BL2(DE3). They were purified using the glutathione (GSH)-Sepharose B beads reagent (Amersham Biosciences). The binding of CN to these GST fusion proteins was used to carry out pull-down tests, which were performed as explained below. A variable amount of the beads which contained the GST fusion proteins fused to the regulatory NFAT domains (1-2 μg) or to the peptides (10-30 μg). These were washed twice with the binding buffer (20 mM Tris pH 8, 100 mM NaCl, 1.5 mM CaCl2, 6 mM MgCl2, 1 mM PMSF, 1 μm DTT, 1 μg/ml of aprotinine, 1 μg/ml of pepstatin, 100 μM of benzamidine and 0.2% of Triton X-100) and were subsequently incubated during 30 min. in a rotary shaker at 4° C. with a solution of 20 nM of Calcineurin (Sigma) plus 600 nM of Calmodulin (Sigma) in a binding buffer with or without the corresponding peptide. Subsequently, the samples were centrifuged briefly at 4° C. Laemmli buffer was added to the supernatants (unbound fraction), which were set aside for later analysis. The beads were washed five times with cold, recently prepared binding buffer and Laemmli buffer was added; the samples were boiled to separate the bound proteins (bound fraction). The bound and unbound fractions were loaded onto 10% SDS-polyacrylamide gels and were separated by electrophoresis under reducing conditions. The Calcineurin was detected by Western blot using an anti-CnA monoclonal mouse antibody (clone G182-1847, PharMingen). Where indicated, the amount of CN bound to the GST fusion proteins was quantified by densitometry using the Quantity One program (BIO-RAD).

[5] = target: T5, CN (Calcineurin) phosphatase activity on RII phosphopeptide (Homo sapiens, UniProt P63098+Q08209); assay: Phosphatase activity assay of CN on RII substrate; assay type: biochemical; conditions: in vitro, FIG. 9
T5 construct: purchased Biomol
Procedure: The effect of the peptides mentioned (Example 7, FIG. 9) on the enzymatic activity of CN on the RII peptide was analysed using the “Biomol Green Calcineurin” assay kit by Biomol in accordance with the manufacturer's instructions. The combination of CsA (Sandoz) plus cyclophilin (CyP) (Sigma) was used to inhibit Calcineurin activity in vitro.

[6] = target: T6, GST-LxVPc1-CN interaction (Homo sapiens, UniProt P63098+Q08209); assay: Cross-competition of GST-LxVPc1-CN interaction (FIG. 7); assay type: binding; conditions: free competitor peptide, VIVIT 12 μM
T6 construct: purchased Sigma
Procedure: as §1

[7] = summary of LxVP and PxIxIT peptides

## CypA: cyclophilin A, immunophilin, used separately as negative control
Human CN
  % CN activity: 103.3 ± 7.1%

## GFP-LxVPc1: GFP fusion protein with the LxVP peptide of NFATc1, expressed in HeLa cells
[1]
  effect on induced NFATc2 dephosphorylation: blocked induced NFATc2 dephosphorylation
[2]
  cells with cytosolic NFATc2 staining: 77%

## GFP-LxVPc2: GFP fusion protein with the LxVP peptide of NFATc2 (SILLVPPTWPKPLVP; also: GFP fusion protein)
[1]
  effect on induced NFATc2 dephosphorylation: had no effect

## GST-LxVPc2: GST protein fused with the LxVP motif of NFATc2 (SILLVPPTWPKPLVP; also: fused to GST protein)
CN (Calcineurin)
  amount of CN bound to GST-peptide fusion protein: incapable of binding CN

## LxVPc2: NFATc2-specific LxVP peptide (SILLVPPTWPKPLVP)
[3]; 32 μM peptide, FIG. 6A
  competition of GST-NFATc1 interaction with CN: not capable of altering the NFAT-CN binding
[3]; [7]
  competition of in vitro interaction of CN with NFATc1, overall: did not efficiently compete
[4]; 100 μM peptide, FIG. 4B
  competition of CN binding to GST-NFATc2: incapable of affecting the binding
[4]; competitor peptides at 32 μM or 200 μM, FIG. 4A
  competition of CN binding to GST-NFATc2: incapable of competing the binding of NFATc2 to CN
[4]; concentrations as high as 300 μM, FIG. 4B
  competition of CN binding to GST-NFATc2: partial inhibition
[4]; [7]
  competition of in vitro interaction of CN with NFATc2, overall: did not efficiently compete

## PxIxITc1: PxIxIT peptide corresponding to NFATc1 (ALESPRIEITSCLGL)
[4]; 100 μM peptide, FIG. 4B
  competition of CN binding to GST-NFATc2: efficiently blocked the interaction of CN with NFATc2

## PxIxITc2: PxIxIT peptide corresponding to NFATc2 (SGLSPRIEITPSHEL)
[5]
  effect on phosphatase activity of CN on RII peptide: failed in the inhibition of phosphatase activity
[6]
  competition of binding of CN to GST-LxVPc1: competed the binding of CN to GST-LxVPc1
[4]; 50 μM peptide, dose-dependent competition, FIG. 5
  competition of GST-NFATc2 binding to CN: only a partial inhibiting effect
[4]; 100 μM peptide, FIG. 4B
  competition of CN binding to GST-NFATc2: efficiently blocked the interaction of CN with NFATc2
